Measurements reported in patent US20040266662A1, “Spheroidal hdl particles with a defined phospholipid composition” (priority 2001, published 2004).

Assay: Unfolding of apoA-I by guanidine hydrochloride
Format: physicochemical
Method: FIG. 4. Unfolding of apoA-I in spherical (POPC)rHDL, (PLPC)rHDL, (PAPC)rHDL and (PDPC)rHDL. (POPC)rHDL, (PLPC)rHDL, (PAPC)rHDL, (PDPC)rHDL and lipid-free apoA-I were incubated with 0-8 M GdnHCl for 0 (◯), 5 ( ), and 24 (●) h. Values represent the mean of at least three determinations. Experimental errors for the wavelength of maximum fluorescence are ±1.0 nm.
FIG. 5. Kinetics of the unfolding of apoA-I in spherical (POPC)rHDL, (PLPC)rHDL, (PAPC)rHDL and (PDPC)rHDL. Spherical (POPC)rHDL ( ), (PLPC)rHDL ( ), (PAPC)rHDL (●), (PDPC)rHDL ( ) and lipid-free apoA-I (◯) were incubated with 3.5 M GdnHCl for 0-24 h. The wavelengths of maximum fluorescence represent the mean±sd of triplicate determinations.
The unfolding of apoA-I was determined by incubating the rHDL preparations at 25° C. for 0-24 h in the presence of 0-8.0 M guanidine hydrochloride (11).

lipid-free apoA-I: Apolipoprotein A-I purified from delipidated HDL of pooled human plasma, used as lipid-free comparator
rate of unfolding of apoA-I (3.5 M GdnHCl, 0-24 h): unfolded rapidly and completely | concentration of GdnHCl required to achieve 50% unfolding of apoA-I (25° C.): 1.0 M
